Results published in publication PMC6318280, “A novel m^6A reader Prrc2a controls oligodendroglial specification and myelination” (Cell Research, 2018).

Target: T1, FLAG-Prrc2a-P2 (residue 761-1408) (mouse, UniProt Q7TSC1 761-1408)
T1 construct: Prrc2a p2 fragment, residue 761-1408, amplified from a mouse cDNA library; holds the region rich in glycine, arginine and glutamic acid (GRE domain); the legend of the pull-down names FLAG-Prrc2a-P2 beside P1, P3 and P4, which fits the proteins purified from HEK293T cells; also called P2 fragment; GRE domain; source: HEK293T, transfected, purified (FLAG beads, eluted with 3xFLAG peptide)
Assay: pull-down; in vitro GST pull-down with purified GST-YTHDF2 and purified FLAG-Prrc2a fragments
Conditions: both partners purified

T1 sequence (Q7TSC1 761-1408): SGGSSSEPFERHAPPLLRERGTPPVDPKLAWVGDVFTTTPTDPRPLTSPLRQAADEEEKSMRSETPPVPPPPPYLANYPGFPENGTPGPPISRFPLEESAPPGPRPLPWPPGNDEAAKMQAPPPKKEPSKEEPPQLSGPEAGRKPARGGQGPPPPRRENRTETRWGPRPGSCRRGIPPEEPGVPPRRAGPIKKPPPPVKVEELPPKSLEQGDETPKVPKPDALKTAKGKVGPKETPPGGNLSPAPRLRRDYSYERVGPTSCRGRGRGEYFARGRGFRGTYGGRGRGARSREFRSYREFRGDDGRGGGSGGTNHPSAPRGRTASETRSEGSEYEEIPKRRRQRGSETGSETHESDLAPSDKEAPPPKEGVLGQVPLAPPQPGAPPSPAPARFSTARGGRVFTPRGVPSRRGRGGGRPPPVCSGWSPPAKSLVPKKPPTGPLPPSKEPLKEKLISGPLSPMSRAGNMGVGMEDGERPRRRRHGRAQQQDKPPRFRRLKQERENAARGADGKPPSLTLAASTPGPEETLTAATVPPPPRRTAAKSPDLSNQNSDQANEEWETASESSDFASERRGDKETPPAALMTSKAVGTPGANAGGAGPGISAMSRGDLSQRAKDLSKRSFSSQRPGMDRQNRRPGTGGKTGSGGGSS

binding result: binds
B1: GST-YTHDF2 (natural protein, human, UniProt Q9Y5A9 1-579, looked up)
chain: MSASSLLEQRPKGQGNKVQNGSVHQKDGLNDDDFEPYLSPQARPNNAYTAMSDSYLPSYYSPSIGFSYSLGEAAWSTGGDTAMPYLTSYGQLSNGEPHFLPDAMFGQPGALGSTPFLGQHGFNFFPSGIDFSAWGNNSSQGQSTQSSGYSSNYAYAPSSLGGAMIDGQSAFANETLNKAPGMNTIDQGMAALKLGSTEVASNVPKVVGSAVGSGSITSNIVASNSLPPATIAPPKPASWADIASKPAKQQPKLKTKNGIAGSSLPPPPIKHNMDIGTWDNKGPVAKAPSQALVQNIGQPTQGSPQPVGQQANNSPPVAQASVGQQTQPLPPPPPQPAQLSVQQQAAQPTRWVAPRNRGSGFGHNGVDGNGVGQSQAGSGSTPSEPHPVLEKLRSINNYNPKDFDWNLKHGRVFIIKSYSEDDIHRSIKYNIWCSTEHGNKRLDAAYRSMNGKGPVYLLFSVNGSGHFCGVAEMKSAVDYNTCAGVWSQDKWKGRFDVRWIFVKDVPNSQLRHIRLENNENKPVTNSRDTQEVPLEKAKQVLKIIASYKHTTSIFDDFSHYEKRQEEEESVKKERQGRGK
notes: human YTHDF2 gene subcloned into a pGEX expression vector with GST-tag; also called recombinant GST-YTHDF2; source: E. coli BL21 (DE3), purified (FPLC, Profinity GST cartridge)
